The target in assay [1] is GLT-1, transfected in HEK PS DKO cells (UniProt P31596). Description: native gel or EMSA; Blue Native PAGE of HEK PS DKO cells transfected with GLT-1 and pcDNA3.1-GFP or wildtype PS1, lysed with digitonin 5%; blot with anti-GLT-1.
For assay [2] the target is unchanged. The assay is described as follows: cross-linking; living HEK PS DKO cells transfected with GLT-1 and empty vector or wildtype PS1; 50 μM DSS in PBS−/− for 30 min at room temperature, quenched with 20 mM glycine; lysed in 1% NP-40 + 0.1% Triton-X; SDS-PAGE and blot with anti-GLT-1.

Where “and” joins values, the source holds several entries; their conditions need not be identical. Identical values can stand only once.

We go through one substance from article PMC10659539.

As for “GLT-1, transfected in HEK PS DKO cells (from UniProt P31596 1-573) (natural protein)”, in assay [1], the GLT-1 multimers as percent of total GLT-1, with co-expressed PS1 is 95.6%; the GLT-1 multimers as percent of total GLT-1, without PS1 worked out at 89.7%; the stoichiometry N is 2 and 3. Further, in assay [2], the stoichiometry N is 2 and 3.

As usually defined, the stoichiometry N is a count of units in the complex or per binding partner.
